Data from the DeepSol protein solubility set.

Assay: soluble on expression in E. coli; label from the status in PepcDB or PDB records

Row | Sequence | soluble on expression in E. coli
1 | MSLVLSAGRLNKNSLGIAVLLCTGLLLAGCSSNSGSGTYSGSVYTVKRGDTLYRISRATGTSVKELARLNGISPPYTIEVGQRIKVRGSAKSSTSTRKTSNKTATKTAAVRPSSSVPKSSWPPVGQRCWVWPANGKVILPYSTAEGGNKGIDIAGARGTPVYAAGAGKVVYVGNQLRGYGNLIMIKHNEDYITAYAHNDTMLVNNGQSVKAGQKIATMGSTDAASVRLHFQIRYRATAIDPLRYLPPQGSKPKCEGHHHHHH | not soluble
2 | MSLRTSGSRLNSVRCASALTISGWKNNCVIEFDASGRIQSLREDSQSDVDLDLKGTVIAGIPNLHSHAHQKVITGLTEHRIAGQDDFWGWRELMYRANARLDPEQLQTIARYLYIDMLQKGYTSVAEFHYLHHQPDGTPYADLSEMSAQLLEAASEAGIAITLLPVLYCRGGFKDEPVQDSQHRFFNNPERYLALLESCHSLCANNPDRSLGFAAHSLRAVSPSAMSSTIEAAGPMLEGAPIHIHVAEQMREVNDCIEINGARPVAWLYDQCDVNDRWCLVHATHVDPQEQALLAQSGAIVGLCPTTEANLGDGIFPAAELMTNNGFLGVGSDSQVCTSPAEELRLLEYSQRFSLQRRTVLVPDEAGSNGRALTTAAIIGGNRARGEPLAGLQPGARGDLVEIGSDHVEFAGRSPDQVLDTWIFSGPDNPVQNVVAGGRHVVHDGVHPAMESASRAYREMVNALDLSEGHHHHHH | soluble
3 | MQTQARPPVPQGPRFNHPATPQQVRRPINAPLPGQTAQIQGNRGPQPPKKKKRYADKLIQPKVRELVPESQAYMDLLAFEQKLDSTITRKKIDVQEALKRPQKIKKRLRIYISHTFIAGKEPEKEGDDASVPMWELRVEGRLLDDMQHPTVGANPRPAPKRKFSSFFKSLVIELDKDIYGPDNHLVEWHRTPQTNETDGFQVKRPGDRPVKCTILLLLDYQPMKFKLHPRLAKVLGIAAETRPRIIEALWQYIKTHKLQDPQDRDTINNDLFLEQCFGVSKMRFMEIPQRLHQLLQQPDPLVLNHIIQRPDDGQDKTSACYDIDVELEDPVKQQMANFVHNQTNANDIQLLDQKIFDLVDQINEMKLRRDFFLRFSNEPSGFIKKWVVSQNSDLKTLTESSGDGESDRYATTYSTTDTDEGVSRYMYQKIQQKRAELEQSLGIRNN | not soluble
4 | MGSDKIHHHHHHMKIVKNFRDINTLIPGWGDKMSEVSIFDIWKGTKFGESVLMEFDSLSFSPLGVYSLAYWARMKGFKVSVVDVLDTLKIYLSYAKMIGLGTSIANDIEVIKLGGRIDSGNVSTRIPITEEKVMEKELMKLYPHEDNEKTIVIVLGIEKFLALWCKLLPDILSFLNFMLSFVGEEWMKSFYFINVDLMKDFSFPALSMLEELSTTVVEISKRGPVLHYIVRKALNPEIDSLEGEIHIKELISEIENPIES | not soluble
5 | MSLSGKNNIELDSWKKAINVISKNMDNGRIGIVQGPPGTGKTTIYANAFSRYFDKLGDGNIIVYIAPTNELVYDMFKKVGSEYAKRGAIDRISHEVRVYGSIFDQDPSIRSIREPPSMETKIVLMTNYQRLYPGNNRFNYNVMIDEASKSPLHTAFIGLANQLAKDELDGSISIVGDPMQAISLGPYQGSARRMLIMSYLLAPMLNHSSRDLNDRELLAEAKRSAIRGSSFEFLEVTLRMPSPSEEAISKGFYDNDLRAYRSASQILHSNYEANKLRELATEKEQMRKITEKVEELISTGRCILYERVNEKKSYDSNYYRKYGLTYDPTRAELGIETAIALAAGTGKHTTVITTYVDQQIQMDLLMRRKYGYILEKYGIRDQISFSTTQSFLGAEDDNIVAVLGKEYSISTYTQNYSTSTYNEGDPSTIYFNEPEVLNVQLSRHKMLLAIIGNLSILASQAAEGHHHHHH | not soluble
6 | MAEVLKKVDVVTVGAGWTGGIVAAELTKAGLNVLSLERGHMQSTENFNYIHDEWRYGINYGLMQDCSKDTVTFRHDPSGLALPYRKMGSFLLGNNVGGAGVHWNGWTFRFMPYDFEIQTLSKQRYGNKLGNDYTLQDWGVTYKDMEPYYDRFEKTCGVSGEPNPLAEKMGAFRSSPYPQEPLENTKMLKRFESAAKSSNLHTYRLPASNSKGGYTNPDGQDLAPCQYCAYCERFGCEYGAKASPLNTVIPKAMSTGKYTIRTYSNVTQILKKDGKVTGVKFVDTRTMKEYIQPADIVVLTSYMFNNAKLLMVSNIGEQYDPKTGKGTLGRNYCYQMNMGTTAFFDEQFNTFMGSGALGTTSDDFNGDNFDHSKEKFLHGAMIYSVQLGTRPIQSAPLPAGAPTWGAEFKKALNYNFTRAITVGGQGASLPHKNNYLSLDPTYKDAFGMPLLRLTYNFTDQDRALHKFITDKTAEVAKRMQGVKSIKKGAYLKDYSVVPYQSTHNTGGTTMGADRETSVVNTYLQHWDADNLFVVGAGNFQHNSGYNPTDTVGALAYRCAEGILKYHKSGKSLALEHHHHHH | not soluble
7 | GPGSMFRAVYSNPAANVPASNCMTDGFPLLPPQRPHSSGSQLMRGCPLPWNDGRTLMYGVPAKNEASLQQVSYSRTLGQRWSSGSADNAAQCAAATHSTVCFASCASGANGSAGGSPVLLQPAMGVPAFVTDNQQLPSMVAQSSPTVSRLTSGMCSTSEGSATFGASTTSATSSTVGNCAATGTAATTNGSMAHTGTSPALPGFQMSVPLPTSAMTAVAAPPQQPQTCFWLSHTTGALTPIRKEDMMTISDTSASTNTHSYAMPPPPTMPSQPSSASATSVPTYLMAPQVSSFGGAMVQAFSELLSGSTAFSVPALPLPQPPRPPKTLNGLQYHLGELYEGFVKRYNPNRGFGFLTATTHVTVVNDGSNSDSATGTPIASLNNTTTAVPTTGEAETPKEYRTPVHLGDIFVHQSSMQMEGFRTLPVGGRVRFCIGYKDGQQTLQAVNVELLPQVLPPNVEMASSP | not soluble
8 | SPPPKAGLPLQQELASGSALVTDQNTGKVLYSRNPDLVVPIASITKLMTAMVVLDSKLPLDEVLPIAISETSEMRGVFSRVRVGSQISRRDMLLLALMSSENRAAASLAQNYPGGKNAFVKAMNAKAHALGMKNTRYVEPTGLSLHNVSTARDLTRLLVASRQYPLLSQWSTTPEKTVAFRHPNYTLGFRNTNHLINNKTWNIQLTKTGFTNEAGHCLVMRTTINRSPVNLVVLDAFGKYTHFADATRLRRWLETGQVTAIPAAAKAYRLQRDRERGLGQPVAQAVR | soluble
9 | MKDSALTLKRVRIGKFSESMVEERPTLNLFEKVEFNPVPTALVDQLPTEPLVEATLLEKEAITFVDTYATSEAHDQIATFVLEQSMETEVVEKEAIETAIVAPAPDLVEEKAVLVEEVLVEPTATEAVTTEENQVSTTSVTKIKTKRSNTKKVTSETLVASKSVKTKKLITPNRVSSGNVNITLWQVDKKSTNLTKTKTDLFGKKHQFKGPQLISYKK | soluble
10 | MTHDNKLQVEAIKRGTVIDAIPAQIGFKLLSLFKLTETDQRITIGLNLPSGEMGRKDLIKIENTFLSEDQVDQLALYAPQATVNRIDNYEVVGKSRPSLPERIDNVLVCPNSNCISHAEPVSSSFAVRKRANDIALKCKYCEKEFSHNVVLAN | soluble
11 | MAITVSIELNRDLEIPASYDEVFDLLADVPKSASHFPKVDKLVDLGNNAYRWEMEKVGVDKHAIQSVYACTYHADKEAGKITWSPIKGEGNGVVSGSWTLSAKGDNATAVKFQTSAELTVPLPSLLKLAISPVIKHEFNSLVDTYMANLKKAFLEHHHHHH | soluble
12 | MSLKTYKGYLIDLDGTMYNGTEKIEEACEFVRTLKDRGVPYLFVTNNSSRTPKQVADKLVSFDIPATEEQVFTTSMATAQHIAQQKKDASVYVIGEEGIRQAIEENGLTFGGENADFVVVGIDRSITYEKFAVGCLAIRNGARFISTNGDIAIPTERGLLPGNGSLTSVLTVSTGVQPVFIGKPESIIMEQAMRVLGTDVSETLMVGDNYATDIMAGINAGMDTLLVHTGVTKREHMTDDMEKPTHAIDSLTEWIPYIEGHHHHHH | soluble
13 | MGSDKIHHHHHHMIDSMTHRKLSNTAQRPSPTRPRHGANATWRMLSVSALMLAMASTATWASDVKSQQTQAADIARNMANNTDTCYVEGVSDRLNCGFVTVPENPNKPDGKQIQVHYVVLPAVKNVNHEEALLAIAGGPGQSAIDNAAGFDAMLSKVRQQRDILLIDQRGTGRSNLLTCDEGAQSPLSFDDDNADTLAETQKCLAKIDADVTQYGSLNAIKDFEAVRQHLGYKKLHIYGISYGTRMAQLYMRLYPAHLATVTLDGIVPMQQSVLEIGASIDRGFDLLFKDCQETTACHAQFPELKAEFDQVAASLAKAPVMENVYDPVTGEKTMLTMTRGKFYGSIRMALYQANVRALVPHAIHQAAKHNFQPILGLYSLTTDNAGMAMGMHASVVCGEDMPRITPAMREQAQHSFMGKTMLEGLEATCEVWKVPAVDDSFSEPISSDIPTLLLSGEIDPATPPSWGELAMEKLTNAKHFVAPYATHGVAYQSCANNLIADLVRSGSVKDLDGECLKKDVRRSFYLNASSVEPLDATSTKTTDDNASTGAKE | not soluble
14 | MRHLKSFYVFHVAASSSSYTEAADKLNITHGAVSKQIKQLEQYLSQPLFLKEGRKSVLTAEGELLKTYTKTAFQTLETGVNTLIQEKHQHLEVSCEPTLTMRWLMPRLAAFNDEHRADVR | not soluble
15 | MGSDKIHHHHHHMGKAMDLPAETREAANNVIKMQRDADWQNDFKKNSDDGIKTQSLYNIRLIMEHDEMLKGLVAFDEFSEQIVKTPQAENSLFKKGFWNDGDDTLLRSYIEDHYNLLFSKENITDAVVTEARRKTINPVKARIEAVEWDGQPRAERYFINYLGAEDNHYTRTITKKWLTGLIARAYVPGVKFEIVPILEGSQGLGKSTAGKNLYPDKFNDSLKGMGKQKDDYQQLQGSWIIEVAELSAMKKTDIEGIKNFISAQSDTYRNSYGRYALPHPRKCVFIGTTNQTDYLKDATGERRFYPIKCGVNKAKLDVWHPDENYMLQVLAEAAYWFKNGEPLYLDQATMKEAKAYQMAAEAVDPMRDAIEAFLAMEVPTDWENMSTSLKQSYVSDYGHHSKWLQDQVSNERKLLNQTTTREIMEVVFHKTVDRYLTGRTNSEAKRIKLLMDNMDGWKSQRIRMNGQRLHGYMREV | not soluble
16 | DKMDGAPSRVLHIRKLPGEVTETEVIALGLPFGKVTNILMLKGKNQAFLELATEEAAITMVNYYSAVTPHLRNQPIYIQYSNHKELKT | soluble
17 | MYVLIGGAGLIGQQLARQVLDQGHTVAVIDQDPQVCKMVRDRLGAMAFEGSAVNTDILLEAGICRADAVAAVLRQDALNLALVTLACHYGVSRIISRISQQDFIEPMRLAGAHHIISTVDLVVSTMVNAIECPQVESMLHFEQGQIEVFKLTLDSQSPVIGRSVAAIAQDRNFPSSSLIIGYQSHPQADLVIPSGNTVLEANATVLLATKPGLVQSLVNFLMPSLFSPLEHHHHHH | not soluble
18 | MIRRAVVAGQFYPDDAELVEMLKRFFTDLGEEGNSRRITAGVAPHAGYIFSGYTASRTYKAIYEDGLPEVFVILGPNHTGLGSPIAVYPKGEWETPLGRIKVDEKLARRITELSEIADLDDLAHKYEHSIEVQLPFIQYLAELSGKDVKIVPITLGIQDEEVSYALGKAIYEASQELGRDIVVIASTDFMHYGEFYGYVPFRARADELPNLVKEWDMRVIRRILDFDVEGMFEEINAMNHTMCGPGGVGVGIVYSKLAGAIEAELLHYTTSFEVSRSTDAIVGYASIVMRKALEHHHHHH | not soluble
19 | MGRAMGDSFTFIFNPAADKGRAADKTALIERSLAHFEVASLETTRFAGHAAEIARAAAGEGSTLIACGGDGTLNEVVNAVAGQPVKVGVLPVGSANDFLKTFNPSAKEHEVRIRGFAGATSRKVDLGKVEFGGGESRYFVNSIGIGFTGRIASTVKSVKWLRGELSYAWALVSVLLGYSAVKMHITLDTVEGKIELDEPVFAFSVSNGRVEGGKFRIAPEADPFDGLLDVCILKAVSKWRVPGYVLKYLKGSQIHDPNVIYCKARSVEVFLSVSEAMHMDGEVIEKVGGAIAITAEPLAVEMLYEP | not soluble
20 | MATNFLVGEKIWFHKFKYGDAERRFYEQMNGPVAGASLQEASMILHDIARARENIPKSLAGSLGPGASSGPSGDHSELVVRIASLEVDNQRDLAERAGEELARPLGHSPADPAHVSHAPSGAPGQEASHTSRG | soluble
